In article doi:10.1101/2022.08.03.502606:
Where two headings read alike, the source gives them in different places.

Legend:
[1] = target: CaMKII^K42RD135N-AviTag (kinase-dead CaMKII, K42R and D135N double mutant, C-terminal AviTag) (human) (UniProt Q9UQM7)
[2] = target: CaMKII^K42RD135N-AviTag (kinase-dead CaMKII, K42R and D135N double mutant, C-terminal AviTag) (human) (UniProt Q9UQM7); assay: mass photometry
[3] = target: CaMKII^K42RD135N-AviTag (kinase-dead CaMKII, K42R and D135N double mutant, C-terminal AviTag) (human) (UniProt Q9UQM7); assay: mass photometry; remark: listed apart in the source
[4] = target: CaMKII^F394BzF (human) (UniProt Q9UQM7)

CaMKII^K42RD135N-AviTag (kinase-dead CaMKII, K42R and D135N double mutant, C-terminal AviTag) (from UniProt Q9UQM7 6-478) (enzyme)
stoichiometry N [1]: 12
stoichiometry N [2]: 10
percent in the tetramer peak [3]: 12%
stoichiometry N [3]: 4

CaMKII^F394BzF (from UniProt Q9UQM7 6-478) (enzyme)
stoichiometry N [4]: 12
